Here are results for 1 protein from patent US7026148.

For this data set, the target named is bovine calmodulin (Sigma), P62157.

B1: FLAG-tagged wild type DRP-1 (DAP-kinase-related protein 1) (protein)
chain: MEPFKQQKVEDFYDIGEELGSGQFAIVKKCREKSTGLEYAAKFIKKRQSRASRRGVSREEIEREVSILRQVLHHNVITLHDVYENRTDVVHILELVSGGELFDFLAQKESLSEEEATSFIKQILDGVNYLHTKKIAHFDLKPENIMLLDKNIPIPHIKLIDFGLAHEIEDGVEFKNIFGTPEFVAPEIVNYEPLGLEADMWSIGVITYILLSGASPFLGDTKQETLANITSVSYDFDEEFFSHTSELAKDFIRKLLVKETRKRLTIQEALRHPWITPVDNQQAMVRRESVVNLENFRKQYVRRRWKLSFSIVSLCNHLTRSLMKKVHLRPDEDLRNCESDTEEDIARRKALHPRRRSSTS
On to B1, for which the “amount of phosphorylated MLC in the in vitro kinase assay” value is reported as “The addition of Ca2+/calmodulin to the reaction mixture increased the amount of phosphorylated MLC”.
